In paper PMC8445599:

Molecular target: FLAG-RepoMan-Ubc9
Experiment: co-immunoprecipitation (IP anti-HA, immunoblot anti-FLAG, quantified with ImageJ)
Settings: 293FT cells; lane 18; with CFP-SUMO2(R59E); ratio of SUMOylated to non-SUMOylated FLAG-RepoMan(WT)-Ubc9 co-precipitated with HA-lamin A; input ratio 0.99 (lane …)

other: SUMOylated/non-SUMOylated: 0.31
Substance: HA–lamin A (WT) (from UniProt P02545) V494E; V495E
